Experiment: soluble on expression in E. coli; label from the status in PepcDB or PDB records

| Sequence | soluble on expression in E. coli |
| --- | --- |
| MSLDLNDTYSGKREPFSGDHSADGFEVTSRSEMSSGSEISPVSEMPSSSEPSSGADYDYSEEYDNEPQIPGYIVDDSVRVEQVVKPPQNKTESENTSDKPKRKKKGGKNGKNRRNRKKKNPCNAEFQNFCIHGECKYIEHLEAVTCKCQQEYFGERCGEKSMKTHSMIDSSEGHHHHHH | soluble |
| MSLKRAIIIGATSGIGKEVAQRLLSEGWQIGIAGRRQSALEEFRQIAPEQIKIQSLDVTQEYSAGKLDALIHQLGGMDLFLLSSGIGFQNMELNMEIELNTARTNVEGFTRMVDTAFSYFRNNGGGHLAVISSIAGTKGLGVAPAYSATKRFQNTYIDALEQLSHLQKLDIHFTDIRPGFVATDLLNDGKHYPMLMKTDQVGRDIVRALHRKQRVAIIDGRYRILVFFWRMIPRWIWKRLPVKTEGHHHHHH | soluble |
| MGGAVEVSATINNVGNYNAEEVVQLYIRDIVGNVTRPIKELKGFQRITLGKGESMVVTFKLHTDELAFYNQQMEYKPEAGLFHVWIGGDSSTTLKTEFEVTDLEHHHHHH | not soluble |
| VSSGAGSDATGAGGVHAAGSGDRAVAAAVERAKATAARNIPAFDDLPVPADTANLREGADLNNALLALLPLVGVWRGEGEGRGPDGDYRFGQQIVVSHDGGDYLNWESRSWRLTATGDYQEPGLREAGFWRFVADPYDPSESQAIELLLAHSAGYVELFYGRPRTQSSWELVTDALARSRSGVLVGGAKRLYGIVEGGDLAYVEERVDADGGLVPHLSARLSRFVG | soluble |
| MPVINVKDDEDFRNQLSLAGLKSVIVDFTAVWCGPCKMIAPTFEALSNQYLGAVFLKVDVEICEKTSSENGVNSMPTFMVFQSGVRVEQMKGADAKALETMVKKYADNSAADSLVAGQMDLTPLVDKKQMECLNESDDTPLGRFLEGNCNLVSDCDEQLIISLPFNQPVKVHSILIKGVSDRAPKKVKVFINLPKTTDFDNATALEPTQMLEFDESSIQGHGQVVALKYVKFQNVQNIQFFIENNVGGGDVTELVKLTVFGTPLSALNMNEFKRVAGKAGDAAH | not soluble |
| MGSDKIHHHHHHMSPPVRPVDHLIPEGAMTSFFDFAISQLPAATADRRGPAPDDIDAMLRRDSFAAALRLLAGSFIALYEGSPEMTTLFATRQSRLLCHALLALYFQKSTAEEGEIALTREDFGHLALRHGLASDRVAYVFFKEALKRGLTRPVDATEDQATGVVPSPPALAMLAQWYDVHFQALDLLDEGFRASRFIQRSETTLPHIHPHVSRAFLSHPEVRCPGPLSIIFNWFDAGGLLMDRLIAGIDRELPAEQGRRFTDVQTVTQLATSLSLSRSHVGRKLAAAELIGGIGWSGRRGRSALWISQGFYEEYARTQARKLLILDEALIGFV | not soluble |
| MAGDIILRVEDLEKRFGGIVALDKVNLEIERGKVTLLIGPNGSGKTTLVNVISGFYKPDGGRVLFKGRDITGMSPHEISKLGLVRTFQIPKPFTNLTVLENVLTAADSPGENVYLAGLARRLWLGFEKRAAARAFEILGWVGLDHMWDRRSGELSGGQMKLLEIARAIMKGAEMIIMDEPAAGVNPRLAGSIMERIKYLAREKGITFLIIEHRIGLVKEYVDRVYAMSMGKVIASGKPDEVLNNPVVLESYLGG | soluble |
| MAHHHHHHMPGPGLLPDGWFREESTMWPGQAQGLKVEKVLYDQPTEFQHLTVFESDPSGPWGTVMTLDGAIQLTDYDEFVYHEMLANLSLACHHKPERVLVIGGGDGGVVREVLRHKSEKDGVVQSVELVDIDGAVMQQSKKHFPQVACGFANPCVTATVGDGAAFVRNVPDSVYDVIIIDTTDPKGPASELFGADFYTNVLRILRPGGVVCNQGESVWLHRPLIEKMMGFLKKDIGFATVKYAMIYIPTYPCGSIGTLVCAKSADTDVTVPMRPVESLGFADQLKYYSSDMHKAAFVLPRFAAHLNE | soluble |
| MQAYFDQLDRVRYEGPQSTNPLAFRHYNPDELVLGKRMEDHLRFAACYWHTFCWNGADMFGVGAFNRPWQQPGEALELAKRKADVAFEFFHKLNVPFYCFHDVDVSPEGASLKEYKNNFAQMVDVLAAKQEQSGVKLLWGTANCFTNPRYGAGAATNPDPEVFSWAATQVVTAMNATHKLGGENYVLWGGREGYETLLNTDLRQEREQIGRFMQMVVEHKHKMGFQGTLLIEPKPQEPTKHQYDYDVATVYGFLKQFGLEKEIKVNIEANHATLAGHSFHHEIATAIALGIFGSVDANRGDAQLGWDTDQFPISVEENALVMYEILKAGGFTTGGLNFDAKVRRQSTDKYDLFYGHIGAMDTMALSLKIAARMVEDGELDKRVAKRYAGWNGELGQQILKGQLSLGELAQYAEQHNLAPVHQSGHQELLENLVNRYLFDK | not soluble |
| MIDVHCHLVDNKFKEDLDDVIGHAHATGIQKMINFPEFESQFEKSIGISKKWPGSVYTGIGIHPIQKRGKSAKMKHISKMEQFFVEHERDIICVGECGLDHTISQFKLTTEDFEEQETVFKWQIDLAKHFEKPLNVHSRSAARRTIEILLECHVAPDQVVLHAFDGTPGDLKLGLEAGYLFSIPPSFGKSEETTQLIESIPLSQLLLETDSPALGPEKGCKNVPANLRISAEIVAKIKKLEIDDIISATSTNANRIFKF | soluble |
| MIDEYDDLAHDSSEGEFEPNTLTPEEKPPHNVDEDRIESTGVAAPMQGTEEPEKGDQKESDGASQVDQSVEITRPETSYYQTLESPSTKRQKLDQQGNGDQTRDFGTSMEL | soluble |
| MVAASEGNVVIEVDMANGWRGNASGSTSHSGITYSADGVTFAALGDGVGAVFDIARPTTLEDAVIAMVVNVSAEFKASEANLQIFAQLKEDWSKGEWDCLAASSELTADTDLTLTCTIDEDDDKFNQTARDVQVGIQAKGTPAGTITIKSVTITLAQEAYSANVDHLRDLAPSDFPIGVAVSNTDSATYNLLTNSREQAVVKKHFNHLTAGNIMKMSYMQPTEGNFNFTNADAFVDWATENNMTVHGHALVWHSDYQVPNFMKNWAGSAEDFLAALDTHITTIVDHYEAKGNLVSWDVVNAAIDDNSPANFRTTDSAFYVKSGNSSVYIERAFQTARAADPAVILYYNDYNIEQNNAKTTKMVDMVKDFQARSIPIDGVGFQMHVCMNYPSIANISAAMKKVVDLGLLVKITELDVAVNQPHCDAYPANKINPLTEAAQLAQKKRYCDVVKAYLDTVPVNQRGGISVWGTTDANTWLDGLYREQFEDEKISWPLLFDNNYNDKPALRGFADALIGTQCTNTHELHHHHHH | soluble |
| MGSDKIHHHHHHFDGFGAVSGGGATSKLLFTYFSEKSDRKQVLESLFNKDNGLQLLKVEMGGDDQSTEGTESSHESEKGKISKNNYEFQLISEVREINPTIPICVLPWAFPGWIGNTPYDNVTETAEYVVNWLKIGRDTWNFDTFCVGVWNERNFSESYVKELRKILNLNGFNETLIVAGEGFRMDDSYSRLLDKRFINEYDIIG | not soluble |
| MFQLSVQDIHPGEQAGNKEEAIRQIAAALAQAGNVAGGYVDGMLAREQQTSTFLGNGIAIPHGTTDTRDQVLKTGVQVFQFPQGVTWGEGQVAYVAIGIAASSDEHLGLLRQLTHVLSDDSVAEQLKSATTAEELRALLMGEKQSEQLKLDNETMTLDVIASSLVTLQALNAARLKEAGAVDAAFVAKTINDSPMNLGQGIWLNDSAEGNLRSAVAVSRATQAFDVEGEKAALLVTVAMNDEQPIAVLKRLGDLLLNNKADRLLSADAATLLALLTSDDALTDDVLSAEFVVRNEHGLHARPGTMLVNTIKQFNSEITVTNLDGTGKPANGRSLMKVVALGVKKGHRLRFTAQGEDAEQALKAIGDAIAAGLGEGA | not soluble |
| AHHHHHHGSKNLYLPITIDHIARVEGKGGVEIIIGDDGVKEVKLNIIEGPRFFEAITIGKKLEEALAIYPRICSFCSAAHKLTALEAAEKAVGFVPREEIQALREVLYIGDMIESHALHLYLLVLPDYRGYSSPLKMVNEYKREIEIALKLKNLGTWMMDILGSRAIHQENAVLGGFGKLPEKSVLEKMKAELREALPLAEYTFELFAKLEQYSEVEGPITHLAVKPRGDAYGIYGDYIKASDGEEFPSEKYRDYIKEFVVEHSFAKHSHYKGRPFMVGAISRVINNADLLYGKAKELYEANKDLLKGTNPFANNLAQALEIVYFIERAIDLLDEALAKWPIKPRDEVEIKDGFGVSTTEAPRGILVYALKVENGRVSYADIITPTAFNLAMMEEHVRMMAEKHYNDDPERLKILAEMVVRAYDPCISCSVHVVRL | soluble |
| MALKAQNTISGKEGRLFLDGEEMAHIKTFEANVEKNKSEVNIMGRRMTGHKTTGANGTGTATFYKVTSQFVLIMMDYVKKGSDPYFTLQAVLDDASSGRGTERVTLYDVNFDSPKIAGLDVDSEALEEEVPFTFEDFDVPEQLKSTFLEHHHHHH | soluble |

Source: the DeepSol protein solubility set
